Source: publication PMC7954794, “Protein context shapes the specificity of SH3 domain-mediated interactions in vivo” (Nature Communications, 2021)

System: growth of yeast strains under 51 stress conditions
Assay: Growth assays in 51 stress conditions (Fig. 1E-F, S2D, S5B)
Assay type: cell-based, Saccharomyces cerevisiae
Design: key to Growth (Fig. S2D) / growth of ABP1 SH3-swapped strains in stress condition: log2 colony size, average of median per strain (growth score)
Settings: ABP1 SH3-swapped strains
Protocol: All WT, SH3-deleted, KO (except for CDC25 which is the only essential SH3-containing gene in yeast), ABP1 SH3-swapped, and SLA1 SH3-shuffled strains were grown on omnitrays in 1536 formats and robotically manipulated with a pin tool (the DHFR F[1,2] bait strains were used except for the KO strains). Each strain was randomly positioned in 6 replicates per plate and two plates per condition were performed, for 12 replicates per strain in total. A border of two rows and two columns of WT strains (BY4741) around the plate was used to remove border effects. Strains were grown on YPD media for two days at 30 °C. They were then replicated on 51 different media that are described in the Supplementary Table 3 and were incubated at 37 °C in a spImager custom platform with images acquired every two hours for four days. The colony sizes from plate pictures were also measured with the R package “Gitter” and the output was manually inspected. Positions with an abnormality in colony circularity were removed. The colony sizes after 74 h of incubation at 37 °C were log2 transformed and used for the analyses. First, the differences between the two plate replicates were corrected to remove plate effects. The median colony size was calculated for each strain per plate. Strains with a difference in their median colony size of more than two between the two plate replicates were removed. Finally, the average of the median colony size was calculated for each strain per condition (growth score).

B1: CYK3 (protein, UniProt Q07533 1-885, looked up)
Cytokinesis protein 3: MATNLTSLKPPFKVKARYGWSGQTKGDLGFLEGDIMEVTRIAGSWFYGKLLRNKKCSGYFPHNFVILLEERLNSSTENGRQPSKIVESFEKSNKVVIPPVPSRYSDERPRPKKKLSSSMPNSPKKPVDSLTKARKAKSKEMVNEKNIYNTQSSRHHNNSAPNLPLASHSKPQVRNFEESMNNPLPPLPPLPDLDNMRKTDKRAPKKSYSANDLHMARSSREYNYYKDNQKFYDGFIPEKRYSLEEDSISSGLFSNSQYLNDSACSSENSFALMSDFSATSAGSFARHKYAQSFSDSLQRSQNANGCSTKINDSQEFGDSNASSRNGKMGDILRKIIIPKRNTNIYSSSVSSPKSPKAYPKLPDIQNLNLSATPDEARDWIAVKCHLNRARTLTKYDKHPRYMRALEENRDLILHPQDSIYNGLNTNEVKGNTKPGLVDVELAELNIEYIDKMTWKRCIRDGTMTLDSWAQTTFSARYSTVLEKLRGIYIFCTEMFALTDDNGTSDFSAEPQNLEKILYRKHCTPYELTWLFKKLANSLGITCEIVIGFLKTPSAINWEFKYNHCWLRILVNKEWRFIDVILGNVTNPIHEFVNNRKIKKAENSYFLMAPLEMIYTHIPPREFEQHIVPSIDQLSALYLPLVFPSFFKNELKLYKFSTALSFLEDSEIYECSLEIPNDVEVFASVVIPTDNEEASSAYRNMELALTQIKKQKAESGRRIALIKAVLPPNVNKGSLYIHSGVRGTQTSIANIHPLSMMVPLTHKGSNMKYEFVIKIPSESIQKIELYIVEPQSRYLFVGNEYSFEVIQSPSDGIVYSSDEGPNQNRKQPMAIKSPSGRVHELVKSDPHFPYGTWKGSIKIKEPGVWSALVIADSGIGWSVFAEWLCV
In the case of B1, the “Growth (Fig. S2D)” value (Bathophenanthroline.0.1uM) is reported as 10.8556, the “Growth (Fig. S2D)” value (Bathophenanthroline.10uM) is reported as 10.6576 and the “Growth (Fig. S2D)” value (Bathophenanthroline.1uM) is reported as 10.8513. For the same molecule, the “Growth (Fig. S2D)” value (CaCl2.100mM) was 10.8897, the “Growth (Fig. S2D)” value (CaCl2.250mM) was 10.7885 and the “Growth (Fig. S2D)” value (CaCl2.500mM) was 10.3059. The “Growth (Fig. S2D)” value (Caffein.10mM) was 9.982, the “Growth (Fig. S2D)” value (Caffein.2mM) was 10.9591 and the “Growth (Fig. S2D)” value (CdCl2.100uM) was 9.489. For the same molecule, the “Growth (Fig. S2D)” value (CdCl2.10uM) was 10.8859, the “Growth (Fig. S2D)” value (CdCl2.50uM) was 9.907 and the “Growth (Fig. S2D)” value (CuSO4.1mM) was 10.4416. The “Growth (Fig. S2D)” value (CuSO4.5mM) was 8.067, the “Growth (Fig. S2D)” value (Cycloheximide.0.05.uM) was 11.0397 and the “Growth (Fig. S2D)” value (Cycloheximide.0.2.uM) was 10.6845. For the same molecule, the “Growth (Fig. S2D)” value (Cycloheximide.0.5.uM) was 10.0538, the “Growth (Fig. S2D)” value (DMSO.2.) was 11.074 and the “Growth (Fig. S2D)” value (DMSO.6.) was 9.997. For the same molecule, the “Growth (Fig. S2D)” value (DMSO.8.) was 9.341, the “Growth (Fig. S2D)” value (Ethanol.2.) was 10.829 and the “Growth (Fig. S2D)” value (Ethanol.6.) was 10.3434. The “Growth (Fig. S2D)” value (Ethanol.8.) was 10.1675, the “Growth (Fig. S2D)” value (Galactose.2.) was 10.8951 and the “Growth (Fig. S2D)” value (Glycerol.2.) was 9.685. The “Growth (Fig. S2D)” value (Hydroxyurea.25mM) was 10.7817, the “Growth (Fig. S2D)” value (Hygromycin.190uM) was 10.9791 and the “Growth (Fig. S2D)” value (Hygromycin.19uM) was 10.9621. The “Growth (Fig. S2D)” value (Hygromycin.95uM) was 11.0521, the “Growth (Fig. S2D)” value (MMS.0.004.) was 10.9601 and the “Growth (Fig. S2D)” value (MMS.0.02.) was 10.7185. The “Growth (Fig. S2D)” value (MMS.0.04.) was 9.916, the “Growth (Fig. S2D)” value (Menadione.100uM) was 10.6134 and the “Growth (Fig. S2D)” value (Menadione.200uM) was 10.436. For the same molecule, the “Growth (Fig. S2D)” value (Menadione.50uM) was 10.8202, the “Growth (Fig. S2D)” value (NaCl.0.25M) was 10.7906 and the “Growth (Fig. S2D)” value (NaCl.1M) was 9.617. The “Growth (Fig. S2D)” value (Nitroquinoline.10uM) was 10.7078, the “Growth (Fig. S2D)” value (Nitroquinoline.50uM) was 10.6701 and the “Growth (Fig. S2D)” value (Nystatin.0.01uM) was 11.0601. The “Growth (Fig. S2D)” value (Nystatin.0.1uM) was 11.0266, the “Growth (Fig. S2D)” value (Raffinose.2.) was 11.0502 and the “Growth (Fig. S2D)” value (Rapamycin.10nM) was 9.888. For the same molecule, the “Growth (Fig. S2D)” value (Rapamycin.50nM) was 9.494, the “Growth (Fig. S2D)” value (SC.pH3) was 10.4532 and the “Growth (Fig. S2D)” value (SC.pH6) was 11.0119. For the same molecule, the “Growth (Fig. S2D)” value (SDS.0.01.) was 11.0053, the “Growth (Fig. S2D)” value (SDS.0.02.) was 10.9934 and the “Growth (Fig. S2D)” value (SDS.0.05.) was 10.9282. The “Growth (Fig. S2D)” value (Sorbitol.10mM) was 11.048, the “Growth (Fig. S2D)” value (Sorbitol.1mM) was 11.0333 and the “Growth (Fig. S2D)” value (Sorbitol.5mM) was 10.9546.

B2: FUS1 (protein, UniProt P11710 1-512, looked up)
Nuclear fusion protein FUS1: MVATIMQTTTTVLTTVAAMSTTLASNYISSQASSSTSVTTVTTIATSIRSTPSNLLFSNVAAQPKSSSASTIGLSIGLPIGIFCFGLLILLCYFYLKRNSVSISNPPMSATIPREEEYCRRTNWFSRLFWQSKCEDQNSYSNRDIEKYNDTQWTSGDNMSSKIQYKISKPIIPQHILTPKKTVKNPYAWSGKNISLDPKVNEMEEEKVVDAFLYTKPPNIVHIESSMPSYNDLPSQKTVSSKKTALKTSEKWSYESPLSRWFLRGSTYFKDYGLSKTSLKTPTGAPQLKQMKMLSRISKGYFNESDIMPDERSPILEYNNTPLDANDSVNNLGNTTPDSQITSYRNNNIDLITARPHSVIYGTTAQQTLETNFNDHHDCNKSTEKHELIIPTPSKPLKKRKKRRQSKMYQHLQHLSRSKPLPLTPNSKYNGEASVQLGKTYTVIQDYEPRLTDEIRISLGEKVKILATHTDGWCLVEKCNTQKGSIHVSVDDKRYLNEDRGIVPGDCLQEYD
In the case of B2, the “Growth (Fig. S2D)” value (Bathophenanthroline.0.1uM) is reported as 10.7893, the “Growth (Fig. S2D)” value (Bathophenanthroline.10uM) is reported as 10.6947 and the “Growth (Fig. S2D)” value (Bathophenanthroline.1uM) is reported as 10.778. The “Growth (Fig. S2D)” value (CaCl2.100mM) was 10.8206, the “Growth (Fig. S2D)” value (CaCl2.250mM) was 10.8008 and the “Growth (Fig. S2D)” value (CaCl2.500mM) was 10.319. The “Growth (Fig. S2D)” value (Caffein.10mM) was 10.109, the “Growth (Fig. S2D)” value (Caffein.2mM) was 11.0074 and the “Growth (Fig. S2D)” value (CdCl2.100uM) was 9.381. The “Growth (Fig. S2D)” value (CdCl2.10uM) was 10.9194, the “Growth (Fig. S2D)” value (CdCl2.50uM) was 9.89 and the “Growth (Fig. S2D)” value (CuSO4.1mM) was 10.4955. The “Growth (Fig. S2D)” value (CuSO4.5mM) was 8.084, the “Growth (Fig. S2D)” value (Cycloheximide.0.05.uM) was 11.1072 and the “Growth (Fig. S2D)” value (Cycloheximide.0.2.uM) was 10.666. The “Growth (Fig. S2D)” value (Cycloheximide.0.5.uM) was 10.227, the “Growth (Fig. S2D)” value (DMSO.2.) was 11.051 and the “Growth (Fig. S2D)” value (DMSO.6.) was 9.944. The “Growth (Fig. S2D)” value (DMSO.8.) was 9.179, the “Growth (Fig. S2D)” value (Ethanol.2.) was 10.7876 and the “Growth (Fig. S2D)” value (Ethanol.6.) was 10.3273. The “Growth (Fig. S2D)” value (Ethanol.8.) was 10.1194, the “Growth (Fig. S2D)” value (Galactose.2.) was 10.7919 and the “Growth (Fig. S2D)” value (Glycerol.2.) was 9.646. The “Growth (Fig. S2D)” value (Hydroxyurea.25mM) was 10.8071, the “Growth (Fig. S2D)” value (Hygromycin.190uM) was 11.0027 and the “Growth (Fig. S2D)” value (Hygromycin.19uM) was 11.0061. The “Growth (Fig. S2D)” value (Hygromycin.95uM) was 11.0532, the “Growth (Fig. S2D)” value (MMS.0.004.) was 10.9625 and the “Growth (Fig. S2D)” value (MMS.0.02.) was 10.7139. The “Growth (Fig. S2D)” value (MMS.0.04.) was 10.0597, the “Growth (Fig. S2D)” value (Menadione.100uM) was 10.6065 and the “Growth (Fig. S2D)” value (Menadione.200uM) was 10.4266. For the same molecule, the “Growth (Fig. S2D)” value (Menadione.50uM) was 10.8061, the “Growth (Fig. S2D)” value (NaCl.0.25M) was 10.6954 and the “Growth (Fig. S2D)” value (NaCl.1M) was 9.8389. For the same molecule, the “Growth (Fig. S2D)” value (Nitroquinoline.10uM) was 10.6415, the “Growth (Fig. S2D)” value (Nitroquinoline.50uM) was 10.6237 and the “Growth (Fig. S2D)” value (Nystatin.0.01uM) was 11.0226. For the same molecule, the “Growth (Fig. S2D)” value (Nystatin.0.1uM) was 11.0679, the “Growth (Fig. S2D)” value (Raffinose.2.) was 11.0059 and the “Growth (Fig. S2D)” value (Rapamycin.10nM) was 9.886. The “Growth (Fig. S2D)” value (Rapamycin.50nM) was 9.356, the “Growth (Fig. S2D)” value (SC.pH3) was 10.3927 and the “Growth (Fig. S2D)” value (SC.pH6) was 11.04. For the same molecule, the “Growth (Fig. S2D)” value (SDS.0.01.) was 10.9614, the “Growth (Fig. S2D)” value (SDS.0.02.) was 10.9777 and the “Growth (Fig. S2D)” value (SDS.0.05.) was 10.8408. The “Growth (Fig. S2D)” value (Sorbitol.10mM) was 10.9835, the “Growth (Fig. S2D)” value (Sorbitol.1mM) was 11.0132 and the “Growth (Fig. S2D)” value (Sorbitol.5mM) was 10.8904.
